Data taken from the DeepSol protein solubility set.

Test: soluble on expression in E. coli; label from the status in PepcDB or PDB records
For “MAHHHHHHMSLYQRKTILAPMVRVGNVGFRVFCAAQGADVVFTEEIVAAKLARCHREVRVHNDAAGPMIEFVAYELFKNQYKRSVVFTTPARDMANQSGEGAPVVLQLGVSDAAVGVAAALLCCEDVDGIDVNMGCPKKFSVDNGMGAALMRDTSKAASILFALDDALNAPDKLAARGRRVPLSFKIRLLETAEATADMLISIMEKVGANRVHAITLHARTVNQVAEDSPHYDRAAEAVRRLRSHPLFKEMCFVLNGSVRSRDDGAVKMAQFGFDAIMIARHAMWDMSVFSRHVSSAGGRSSLTSEDAEAPLASTSWMDLYRSLLRTHAKYCTPFTYVKYHLTRSIPCIPALRHLMTAVQQEATCYEDLAKIFSLPLEEQESMRGVAAVEMVACVPNREVTLGVVSSNAIKHNDAARSGRVRSEKSAATPAAKKPRGE”, the “soluble on expression in E. coli” value was “soluble”. In the case of “MSQDFVTLVSKDDKEYEISRSAAMISPTLKAMIEGPFRESKGRIELKQFDSHILEKAVEYLNYNLKYSGVSEDDDEIPEFEIPTEMSLELLLAADYLSI”, the “soluble on expression in E. coli” value is reported as “soluble”. For “MGSDKIHHHHHHMTWLPLNPIPLKDRVSMIFLQYGQIDVIDGAFVLIDKTGIRTHIPVGSVACIMLEPGTRVSHAAVRLAAQVGTLLVWVGEAGVRVYASGQPGGARSDKLLYQAKLALDEDLRLKVVRKMFELRFGEPAPARRSVEQLRGIEGSRVRATYALLAKQYGVTWNGRRYDPKDWEKGDTINQCISAATSCLYGVTEAAILAAGYAPAIGFVHTGKPLSFVYDIADIIKFDTVVPKAFEIARRNPGEPDREVRLACRDIFRSSKTLAKLIPLIEDVLAAGEIQPPAPPEDAQPVAIPLPVSLGDAGHRSS”, the “soluble on expression in E. coli” value was “not soluble”. With “MGSDKIHHHHHHMAIRSNHILVSRTDNIGDIVLTLPMVARLRQLNPKAKISFLCRAYAAPLVRFCTDIDEVIELENIADDPAGFLRKSGIDTVILAQPDRTLAQAAFRARVRHRIGNARQKIYLMLYCNRRVRFSKRTTEDHEAQINFRFLSPYGSRDIPTREQIPDLYHFDIPEDKAISDMQAPYAFNLVLHTKSNGHGREWPIEHYAALAELLLARRDVHLWLSGSAKEGEWLKANGGALLAKPNVTSLCGTQTLGQLTTFIHQADGLIASGTGPLHLSAAIGQRTLGLFPPTRPMHPGRWAALGKRAQNLVRDKSCRDCEKLETISCDCMVQLSPQSVLEIVEGWIRDKSAA” the “soluble on expression in E. coli” value was “not soluble”. With “SLSKEKISVQENKKMATIRDISLKCGVSVSTVSKVLNGYREIGEETSKAVMKAAEELGYVPNSYARQLKLKKSYNIGVLFDTLSVYGLKNEYFAHILAALRENASQGGYDITFIENNIGNRRMTYLEHCKYRNFDGICIVCADFTNPEVLDVVNSDFPVVTIDHSFNEAISILSDNSGGMRDLAQYIVSMGHKKIAYIHGNKSSVTHNRLVAFHQVLAEHDIVIPEYYMKEGEYRLAESAEEFTYELLNLSDRPTCILASDDYAALGVIKAIKRAGLRFPEDISVAGFDGISISQALEPKLTTVKQDTEKLGEQAAKKLICLMESPMTTPLEHIVLKAELIIGDSVKKLREG” the “soluble on expression in E. coli” value was “soluble”. With “DMNYTYTSIAAIDGNIKTFVAAPRVGYRWQYDGGRELRVFVGAMYQNVQQELSGDLKSLNLPPQLLGLVENLSPDAGFNVSQSADENWNSVLGFQYAFNKDWEILMEAGFGERETLFFSLGRRF” the “soluble on expression in E. coli” value was “not soluble”. With “MQKKRFSKKYEVHYYEINSMQEATLLSLLNYMEDCAISHSTSAGYGVNELLAADAGWVLYRWLIKIDRLPKLGETITVQTWASSFERFYGNREFIVLDGRDNPIVKASSVWIYFNIKKRKPMRIPLEMGDAYGIDETRALEEPFTDFDFDFEPKVIEEFTVKRSDIDTNSHVNNKKYVDWIMETVPQQIYDNYKVTSLQIIYKKESSLGSGIKAGCVIDEQNTDNPRLLHKIWDKNTGLELVSAETIWQKIQS” the “soluble on expression in E. coli” value was “soluble”. With “AGRTGRLHLAIECHSCFQWLMPALDAFRGQWPDVALDLSAAFSFAPLPALVRGDLDLVITSDPQALEAVTYLPLFKYELVLAVAESNPLAANRHVMPEQLADQTLITYPVDRQRLDIFTGF” the “soluble on expression in E. coli” value was “not soluble”. In the case of “MLKYNIRGENIEVTEPIRDYVEKKIDKLERYFTETPDANVHVNLKVYSDKNAKVEVTIPLPNLVLRAEETSGDLYASIDLIVDKLERQIRKHKTKVNRKFRDKGAERDYFAYSDVNGSTPPEENEGDFDLEIVRTKQFSLKPMDSEEAVLQMNLLGHSFYVYTDAETNGTNIVYSRKDGKYGLIETNLEHHHHHH”, the “soluble on expression in E. coli” value is reported as “soluble”. For “MYLQPKKVRWRKQRRGTLKGKAFRGNKLAFGEYGIQALDRAWITQQQIEAVRVALVRSLKKGAKVWIRIFPDKPYTKKPNEVRMGGGKGDPEGFVAVVKPGRILFEFTGVPEEVAQEAFTIAASKLPIPVRLVKYGEFTFKYLEHHHHHH”, the “soluble on expression in E. coli” value was “not soluble”. For “MTFTASSSSCAITESPVVVALDYHERDKALAFVDKIDPRDCRLKVGKEMFTLFGPQLVRDLQQRGFDVFLDLKFHDIPNTTARAVAAAADLGVWMVNVHASGGARMMAAARDALAPFSKDAPLLIAVTVLTSMETSDLHDLGVTLSPAEHAERLARLTQQCGLDGVVCSAQEAVRFKQAFGAAFKLVTPGIRPAGSEAGDQRRIMTPEQALSAGVDYMVIGRPVTQSVDPAQTLKDINASLKREA”, the “soluble on expression in E. coli” value was “not soluble”. With “MAVLGLQGVRGGVGTTTITAALAWSLQMLGENVLVVDACPDNLLRLSFNVDFTHRQGWARAMLDGQDWRDAGLRYTSQLDLLPFGQLSIEEQENPQHWQTRLSDICSGLQQLKASGRYQWILIDLPRDASQITHQLLSLCEHSLAIVNVDANCHIRLHQQALPDGAHILINDFRIGSQVQDDIYQLWLQSQRRLLPMLIHRDEAMAECLAAKQPVGEYRSDALAAEEILTLANWCLLNYSGLKTPVGSAS” the “soluble on expression in E. coli” value was “not soluble”. For “MSLEKWRIYEELTNAVREFESINPVRLIPEVGTNFVYSLPLPYARSTKDVAGVKGRIVKYGNSVKAVGPVEFGASDHLARAVLTYMRFYPEYRSAINIRYSREIIEEIIEIAQERGFKVSFYDRREEPEEIKAKEGATIPWGIETAIKRIKERPDIIYHLGDVGKEPMILVFGRNPREVLEKIKMLIEGHHHHHH”, the “soluble on expression in E. coli” value was “soluble”. With “MQPEEGTGWLLELLSEVQLQQYFLRLRDDLNVTRLSHFEYVKNEDLEKIGMGRPGQRRLWEAVKRRKALCKRKSWMSKVFSGKRLEAEFPPHHSQSTFRKTSPAPGGPAGEGPLQSLTCLIGEKDLRLLEKLGDGSFGVVRRGEWDAPSGKTVSVAVKCLKPDVLSQPEAMDDFIREVNAMHSLDHRNLIRLYGVVLTPPMKMVTELAPLGSLLDRLRKHQGHFLLGTLSRYAVQVAEGMGYLESKRFIHRDLAARNLLLATRDLVKIGDFGLMRALPQNDDHYVMQEHRKVPFAWCAPESLKTRTFSHASDTWMFGVTLWEMFTYGQEPWIGLNGSQILHKIDKEGERLPRPEDCPQDIYNVMVQCWAHKPEDRPTFVALRDFLLEAQPTDMRALQDFEEPDKLHIQMNDVITVIEGRAENYWWRGQNTRTLCVGPFPRNVVTSVAGLSAQDISQPLQNSFIHTGHGDSDPRHCWGFPDRIDELYLGNPMDPPDLLSVELSTSRPPQHLGGVKKPTYDPVSEDQDPLSSDFKRLGLRKPGLPRGLWLAKPSARVPGTKASRGSGAEVTLIDFGEEPVVPALRPCPPSLAQLAMDACSLLDETPPQSPTRALPRPLHPTPVVDWDARPLPPPPAYDDVAQDEDDFEICSINSTLVGAGVPAGPSQGQTNYAFVPEQARPPPPLEDNLFLPPQGGGKPPSSAQTAEIFQALQQECMRQLQAPGSPAPSPSPGGDDKPQVPPRVPIPPRPTRPHVQLSPAPPGEEETSQWPGPASPPRVPPREPLSPQGSRTPSPLVPPGSSPLPPRLSSSPGKTMPTTQSFASDPKYATPQVIQAPGAGGPCILPIVRDGKKVSSTHYYLLPERPSYLERYQRFLREAQSPEEPTPLPVPLLLPPPSTPAPAAPTATVRPMPQAALDPKANFSTNNSNPGARPPPPRATARLPQRGCPGDGPEAGRPADKIQMAMVHGVTTEECQAALQCHGWSVQRAAQYLKVEQLFGLGLRPRGECHKVLEMFDWNLEQAGCHLLGSWGPAHHKR” the “soluble on expression in E. coli” value was “not soluble”. With “SKREHNHRRITVTAAIGNKHRRQLATNLHAIEHHAFEHFIAWVAENHFEPEADCKLGTRLRHAGVPGQQ” the “soluble on expression in E. coli” value was “soluble”. With “METSNFVKQLSSNNRKTRVNALEALKKYLTAKQFKENKQIEFNKLWKGLYYAMWFSDRPRPQQRLANELGELHGLYFDPKDNSTADELTTNDKAFIKFSRGFWKVMCFEWFNIDRYRLDKYLLLIRRVLFSQLKYLQSRNWDKKLVDEYIKKVLRWLPLSGSPKVYTGIPIHIVDILLDEWERLLKDGDEDDEDEENKEEEMRKIAESAKKTPLADVIAIFQDIVADYNNSKVLREKIKEDLFSDTRLVSWDILEGETQHNDSSNESEEEEEEEWKGF” the “soluble on expression in E. coli” value was “not soluble”. In the case of “MAHHHHHHMAEALHERHFFDKFIKMNIPDDYLDASRFRVIPDNQEVYVHKFQDKCLIIEILCFQNMNIQEKGNFYFYDLAKENDSIENVIITSNHSVPHSQGNYILLVGRQKIKKNNSSTHEPILLYICIFPLEEHNADIIITWNVPKEDMDIQPELETFNEMMQSFRILDYTLFV”, the “soluble on expression in E. coli” value is reported as “soluble”. With “MGSDKIHHHHHHMKKLLLPLIIMLLVLAACGNQGEKNNKAETKSYKMDDGKTVDIPKDPKRIAVVAPTYAGGLKKLGANIVAVNQQVDQSKVLKDKFKGVTKIGDGDVEKVAKEKPDLIIVYSTDKDIKKYQKVAPTVVVDYNKHKYLEQQEMLGKIVGKEDKVKAWKKDWEETTAKDGKEIKKAIGQDATVSLFDEFDKKLYTYGDNWGRGGEVLYQAFGLKMQPEQQKLTAKAGWAEVKQEEIEKYAGDYIVSTSEGKPTPGYESTNMWKNLKATKEGHIVKVDAGTYWYNDPYTLDFMRKDLKEKLIKAAK” the “soluble on expression in E. coli” value was “not soluble”. For “MSNKLDGINKMITAKHKQMDDLYDEKREVKALIDESDELNHSIEQLYQHLGDRYHSSNMASRMEQFRDEFHFAKRRSTEALYEQQQQIQHGIRKAEEEMIDLEMRRNVEIETVTKEENKWKQLEHHHHHH”, the “soluble on expression in E. coli” value was “soluble”. With “MGSDKIHHHHHHMDDLRDSLDRIKSICSEIVVQFESSDVAESLKALQKAVNEAAKSWSGSWLGYHSRVYYNQLQPVPPGARFSQEWGLSDGLSNETRGDWCEYDFDSIYNILKSKAINFSLEQLNELANYANEEIPDLREELISIIFSCLASGEDTYLDRLKQEAELCKTSSVGEFVDYLRGGGQFFSRDRVAVLSGSQTPPHIYLQAQLLAVQSPSTVAKSLKKIANRLALHLTNKSRTYMYSSQPGTHVFIGHGHSPLWRDLKDFISERLKLPWDEFNRLPIAGINNTVRLSQMLDSAAIAFLIMTGEDEQSDLKLRARMNVIHEAGLFQGRLGFRRAILLLEEGCENFSNVDGIGYINFPRGNIKACFEDVRMVLEREGLV” the “soluble on expression in E. coli” value was “not soluble”. For “MPAPLYGADDPLRCSGNSVSEVLDKFRKKYDLIMSLPQETKEEKEFRHCIWLAEKEEREQIYQTSIRPFRKATYTHFPEIDPRLRNYRSRYGAISND”, the “soluble on expression in E. coli” value was “not soluble”. In the case of “MRTLPILLLVIVGVVYCYPLNEDNVDLESDVAEMEGAELDRVKRASDHKLEKKLDEIMEKVEKIKDKIEENKEKREKKNKKKGNKKDEDEEEEEDKDKKKKDKKKNKDSEEEEDKKKDKKKKNDSSDESEEENKKRKNKRKN”, the “soluble on expression in E. coli” value is reported as “not soluble”. For “MQSLSPTSRYLQALNEGTHQPDDVQKEAVDRLETLYQALTAKKSSATPPGGLIARLGKLLGKNEPDAQIPVRGLYMWGGVGRGKTWLMDLFYHSLPGERKLRLHFHRFMLRVHEELTALQGQIDPLDIIADRFKTETDVLCFDEFFVTDITDAMLLGGLMKALFARGITLVATSNIPPEELYRNGLQRARFLPAIDAIKQHCDIMNVDAGVDYRLRTLTQAHLWLTPLNDETRRQMDKLWLALAGAAREHAPTLEINHRPLSTLGVENQTLAVSFATLCVEARSQHDYIALSRLFHTVLLFDVPVMTPLMENEARRFIALVDEFYERHVKLVVSAAAPLYEIYQGERLKFEFQRCLSRLQEMQSAEYLKREHMPMAGDPLEHHHHHH”, the “soluble on expression in E. coli” value was “not soluble”.
